These results are taken from patent US20220168345A1 (published 2022).

This test has as its target T1, NY-ESO-1 peptide on HLA-B*07:02 (human).
T1 peptide: APRGPHGGAASGL
The experiment in a line: multimer staining. From the text:
FIGS. 3A-3I are graphical representations of positive staining of Jurkat 76/CD8 cells transduced with B*07:02/NY-ESO-1₆₀₋₇₂ TCR genes with a cognate multimer. Jurkat 76/CD8 cells transduced with the B*07:02/NY-ESO-1₆₀₋₇₂ TCR (FIGS. 3B, 3E, and 3H) were stained with the B*07:02/NY-ESO-1₆₀₋₇₂ multimer (FIG. 3B). The B*07:02/MAGE-A1₂₈₉₋₂₉₇ multimer (FIGS. 3D, 3E, and 3F), B*07:02/unexchanged multimer (FIGS. 3G, 3H, and 3I), and B*07:02/MAGE-A1₂₈₉₋₂₉₇ TCR (FIGS. 3C, 3F, and 3I) were employed as controls, as well as Jurkat 76/CD8 not transduced with a TCR (FIGS. 3A, 3D, and 3G). The percentage of multimer⁺ CD8⁺ cells is shown.
T cells (1×10⁵) were incubated for 30 minutes at 37° C. in the presence of 50 nM dasatinib (LC laboratories). The cells were then washed and incubated with 5-10 μg/ml of multimer for 30 minutes at room temperature, and R-phycoerythrin-conjugated AffiniPure Fab fragment goat anti-mouse IgG1 (Jackson ImmunoResearch Laboratories) was added for 15 minutes at 4° C. Next, the cells were washed three times and costained with an anti-CD8 mAb for 15 minutes at 4° C. Dead cells were finally discriminated using the LIVE/DEAD Fixable Dead Cell Stain kit.

B1: B*07:02/NY-ESO-1 60-72 TCR (TCR, V domains shown)
Valpha: AQSVTQLDSHVSVSEGTPVLLRCNYSSSYSPSLFWYVQHPNKGLQLLLKYTSAATLVKGINGFEAEFKKSETSFHLTKPSAHMSDAAEYFCVVSFSGNTPLVFGKGTRLSVIA
Vbeta: DTGVSQDPRHKITKRGQNVTFRCDPISEHNRLYWYRQTLGQGPEFLTYFQNEAQLEKSRLLSDRFSAERPKGSFSTLEIQRTEQGDSAMYLCASSSSYSNQPQHFGDGTRLSIL
For B1, the binding result is given as “recognises”.
